Target: endogenous gelsolin (mouse (endogenous in osteoclasts)) (UniProt P13020)
Assay: co-IP

Chain of endogenous gelsolin (mouse (endogenous in osteoclasts)) (P13020 26-780): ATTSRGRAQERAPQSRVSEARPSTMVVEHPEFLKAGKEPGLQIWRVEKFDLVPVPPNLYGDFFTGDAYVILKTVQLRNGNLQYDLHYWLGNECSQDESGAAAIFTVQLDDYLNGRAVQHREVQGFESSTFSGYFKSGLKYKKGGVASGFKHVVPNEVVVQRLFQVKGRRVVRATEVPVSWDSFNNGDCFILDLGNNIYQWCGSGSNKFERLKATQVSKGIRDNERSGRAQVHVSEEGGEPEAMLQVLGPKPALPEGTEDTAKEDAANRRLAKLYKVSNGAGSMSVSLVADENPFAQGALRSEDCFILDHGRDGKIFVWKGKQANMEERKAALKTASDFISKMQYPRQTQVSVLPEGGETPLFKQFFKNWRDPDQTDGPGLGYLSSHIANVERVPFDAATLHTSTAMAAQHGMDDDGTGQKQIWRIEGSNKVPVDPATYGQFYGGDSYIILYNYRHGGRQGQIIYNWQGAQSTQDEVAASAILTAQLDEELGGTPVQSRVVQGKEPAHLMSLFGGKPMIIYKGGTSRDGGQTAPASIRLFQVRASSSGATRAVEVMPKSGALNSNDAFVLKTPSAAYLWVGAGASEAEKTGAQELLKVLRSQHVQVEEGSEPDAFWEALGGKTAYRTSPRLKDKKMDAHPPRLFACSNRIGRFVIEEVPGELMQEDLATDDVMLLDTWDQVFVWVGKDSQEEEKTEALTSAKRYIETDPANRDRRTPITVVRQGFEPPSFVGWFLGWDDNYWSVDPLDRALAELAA

Substance “actin (from UniProt P60710 1-375) (natural protein)” has a gelsolin/actin ratio of the EGTA-resistant complex (untransduced, OPN) of 0.82 and a gelsolin/actin ratio of the EGTA-resistant complex (untransduced, PBS) of 1.45.
